According to the supplement of paper PMC9233669:
Fewer inactive variants are shown than the library holds.

Experiments:
biotinyl-Phe-oxazolone = test: self-aminoacylation, catalytic enhancement (BFO) (fold over background); higher = more active; k-Seq, kA / k0A0; sequences stand for … in GGGAAUGGAUCCACAUCUACGAAUUC…UUCACUGCAGACUUGACGAAGCUG
Method in brief: (§1)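 Catalytic enhancement equals the median kA over the uncatalyzed rate, the latter read from the low-activity peak of a bimodal Gaussian fit. Values of kA came from fitting each sequence's fraction reacted to a pseudo-first-order model, with 1000 bootstraps. Reacted RNA was captured with streptavidin and quantified by triplicate qPCR and Illumina sequencing after 90 minutes at room temperature with 2–1250 μM biotinyl-aminoacyl-oxazolone and 0.43 μM mutagenized RNA pools bearing a 21-nt variable region.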

biotinyl-Ile-oxazolone = test: self-aminoacylation, catalytic enhancement (BIO) (fold over background); higher = more active; k-Seq, kA / k0A0; sequences stand for … in GGGAAUGGAUCCACAUCUACGAAUUC…UUCACUGCAGACUUGACGAAGCUG
Method in brief: as §1

biotinyl-Met-oxazolone = test: self-aminoacylation, catalytic enhancement (BMO) (fold over background); higher = more active; k-Seq, kA / k0A0; sequences stand for … in GGGAAUGGAUCCACAUCUACGAAUUC…UUCACUGCAGACUUGACGAAGCUG
Method in brief: as §1

biotinyl-Val-oxazolone = test: self-aminoacylation, catalytic enhancement (BVO) (fold over background); higher = more active; k-Seq, kA / k0A0; sequences stand for … in GGGAAUGGAUCCACAUCUACGAAUUC…UUCACUGCAGACUUGACGAAGCUG
Method in brief: as §1

biotinyl-Leu-oxazolone = test: self-aminoacylation, catalytic enhancement (BLO) (fold over background); higher = more active; k-Seq, kA / k0A0; sequences stand for … in GGGAAUGGAUCCACAUCUACGAAUUC…UUCACUGCAGACUUGACGAAGCUG
Method in brief: as §1

biotinyl-Trp-oxazolone = test: self-aminoacylation, catalytic enhancement (BWO) (fold over background); higher = more active; k-Seq, kA / k0A0; sequences stand for … in GGGAAUGGAUCCACAUCUACGAAUUC…UUCACUGCAGACUUGACGAAGCUG
Method in brief: as §1

Row | Sequence | self-aminoacylation (biotinyl-Phe-oxazolone) | self-aminoacylation (biotinyl-Ile-oxazolone) | self-aminoacylation (biotinyl-Met-oxazolone) | self-aminoacylation (biotinyl-Val-oxazolone) | self-aminoacylation (biotinyl-Leu-oxazolone) | self-aminoacylation (biotinyl-Trp-oxazolone)
1 | AAGUUUGCUAAUAGUCGGCAG [Fam3.1 aminoacylation ribozyme variant] | 1.3 | 0.923 | 0.98 | 0.785 | 0.983 | 1.28
2 | AAGUUUGCUAAUAGUCGUACG [Fam3.1 aminoacylation ribozyme variant] | 1.11 | 0.65 | 0.547 | 0.565 | 0.524 | 0.579
3 | AAGUUUGCUAAUAGUGGAAAG [Fam3.1 aminoacylation ribozyme variant] | 0.794 | 1.21 | 1.2 | 0.944 | 0.876 | 0.946
4 | AAGUUUGCUAAUAUGCGCAAG [Fam3.1 aminoacylation ribozyme variant] | 1.34 | 0.847 | 0.89 | 0.61 | 0.843 | 1.2
5 | AAGUUUGCUAAUAUUCGUAAG [Fam3.1 aminoacylation ribozyme variant] | 0.919 | 0.83 | 0.616 | 0.779 | 0.636 | 0.911
6 | AAGUUUGCUAAUGAUCGCAAG [Fam3.1 aminoacylation ribozyme variant] | 0.952 | 0.697 | 0.488 | 0.603 | 0.52 | 0.749
7 | AAGUUUGCUAAUGGACGCAAG [Fam3.1 aminoacylation ribozyme variant] | 1.18 | 0.591 | 0.604 | 0.576 | 0.83 | 0.56
8 | AAGUUUGCUAAUGGUCGCUAG [Fam3.1 aminoacylation ribozyme variant] | 0.714 | 0.829 | 0.963 | 0.975 | 0.908 | 0.845
9 | AAGUUUGCUAAUUGCCGCAAG [Fam3.1 aminoacylation ribozyme variant] | 1.02 | 1.87 | 1.47 | 1.44 | 1.35 | 2.73
10 | AAGUUUGCUAAUUUUCGCAAG [Fam3.1 aminoacylation ribozyme variant] | 0.884 | 1.07 | 1.06 | 1.1 | 1.23 | 1.85
11 | AAGUUUGCUACCAGUCGCAAG [Fam3.1 aminoacylation ribozyme variant] | 0.754 | 1.12 | 1.47 | 0.912 | 0.891 | 0.552
12 | AAGUUUGCUACGAGUCGCAAG [Fam3.1 aminoacylation ribozyme variant] | 1.05 | 0.656 | 0.922 | 0.876 | 0.671 | 0.978
13 | AAGUUUGCUACUAGUCACAAG [Fam3.1 aminoacylation ribozyme variant] | 2.36 | 0.962 | 0.969 | 1.02 | 0.772 | 1.29
14 | AAGUUUGCUACUAGUCGCACG [Fam3.1 aminoacylation ribozyme variant] | 1.28 | 0.967 | 1.02 | 0.846 | 1.1 | 1.73
15 | AAGUUUGCUACUCGUCGCAAG [Fam3.1 aminoacylation ribozyme variant] | 0.598 | 0.823 | 0.922 | 1.04 | 0.958 | 1.31
16 | AAGUUUGCUAGUAGUCGCAAU [Fam3.1 aminoacylation ribozyme variant] | 1.2 | 1.01 | 0.922 | 1.08 | 0.95 | 0.724
17 | AAGUUUGCUAGUAGUGGCAAG [Fam3.1 aminoacylation ribozyme variant] | 1.2 | 0.893 | 0.882 | 0.814 | 0.71 | 0.556
18 | AAGUUUGCUAUAAGUCGCAAG [Fam3.1 aminoacylation ribozyme variant] | 1 | 1.12 | 0.995 | 0.9 | 0.726 | 0.892
19 | AAGUUUGCUAUUAGUCACAAG [Fam3.1 aminoacylation ribozyme variant] | 1.85 | 1.19 | 1.24 | 1.3 | 1.16 | 1.28
20 | AAGUUUGCUAUUAGUCGCAUG [Fam3.1 aminoacylation ribozyme variant] | 1.98 | 1.01 | 0.953 | 0.79 | 1.21 | 0.858
21 | AAGUUUGCUAUUCGUCGCAAG [Fam3.1 aminoacylation ribozyme variant] | 0.857 | 0.985 | 1.23 | 0.862 | 0.902 | 0.872
22 | AAGUUUGCUAUUUGUCGCAAG [Fam3.1 aminoacylation ribozyme variant] | 1.05 | 1.04 | 0.936 | 0.819 | 0.989 | 1.2
23 | AAGUUUGCUCAUAAUCGCAAG [Fam3.1 aminoacylation ribozyme variant] | 0.71 | 0.812 | 0.699 | 0.766 | 0.726 | 0.658
24 | AAGUUUGCUCAUAGCCGCAAG [Fam3.1 aminoacylation ribozyme variant] | 1.35 | 0.88 | 0.891 | 0.895 | 0.719 | 0.78
25 | AAGUUUGCUCAUAGUCGCAAA [Fam3.1 aminoacylation ribozyme variant] | 1.45 | 1.49 | 1.69 | 1.41 | 1.44 | 1.49
26 | AAGUUUGCUCAUAGUCGCAAG [Fam3.1 aminoacylation ribozyme variant] | 7.54 | 0.968 | 1.13 | 0.942 | 0.906 | 2.38

Row | Sequence | self-aminoacylation (biotinyl-Phe-oxazolone) | self-aminoacylation (biotinyl-Ile-oxazolone) | self-aminoacylation (biotinyl-Met-oxazolone) | self-aminoacylation (biotinyl-Val-oxazolone) | self-aminoacylation (biotinyl-Leu-oxazolone) | self-aminoacylation (biotinyl-Trp-oxazolone)
27 | AAGUUUGCUGAUAGUCGCAAG [Fam3.1 aminoacylation ribozyme variant] | 1.68 | 0.979 | 0.906 | 0.952 | 0.866 | 1.02
28 | AAGUUUGCUUAUAAUCGCAAG [Fam3.1 aminoacylation ribozyme variant] | 1.03 | 0.833 | 0.688 | 0.815 | 0.739 | 1.02
29 | AAGUUUGCUUAUAGUCGCACG [Fam3.1 aminoacylation ribozyme variant] | 1.27 | 0.815 | 0.961 | 0.855 | 0.932 | 0.924
30 | AAGUUUGCUUAUAGUCGCAUG [Fam3.1 aminoacylation ribozyme variant] | 1.33 | 0.918 | 0.857 | 0.999 | 0.926 | 0.976
31 | AAGUUUGCUUAUAGUUGCAAG [Fam3.1 aminoacylation ribozyme variant] | 0.81 | 0.877 | 0.919 | 0.987 | 0.894 | 0.591
32 | AAGUUUGGUAAUAGACGCAAG [Fam3.1 aminoacylation ribozyme variant] | 0.706 | 0.574 | 0.453 | 0.487 | 0.442 | 0.575
33 | AAGUUUGGUAAUAGUCGCAUG [Fam3.1 aminoacylation ribozyme variant] | 2.43 | 1.51 | 1.31 | 1.62 | 1.31 | 1.58
34 | AAGUUUGGUACUAGUCGCAAG [Fam3.1 aminoacylation ribozyme variant] | 2.39 | 1.66 | 2.03 | 1.7 | 1.57 | 1.73
35 | AAGUUUGGUGAUAGUCGCAAG [Fam3.1 aminoacylation ribozyme variant] | 2.03 | 1.36 | 1.51 | 1.23 | 1.43 | 1.42
36 | AAGUUUGGUUAUAGUCGCAAG [Fam3.1 aminoacylation ribozyme variant] | 2.69 | 1.7 | 1.23 | 1.39 | 1.38 | 1.46
37 | AAGUUUGUUAAUAGUCACAAG [Fam3.1 aminoacylation ribozyme variant] | 1.16 | 1.06 | 0.982 | 0.941 | 0.749 | 0.701
38 | AAGUUUGUUAAUAGUCCCAAG [Fam3.1 aminoacylation ribozyme variant] | 1.12 | 0.846 | 0.751 | 0.884 | 0.775 | 0.847
39 | AAGUUUGUUAAUAGUCGAAAG [Fam3.1 aminoacylation ribozyme variant] | 1.08 | 0.947 | 0.764 | 0.998 | 0.935 | 0.713
40 | AAGUUUGUUAAUAGUCGCACG [Fam3.1 aminoacylation ribozyme variant] | 1.4 | 1.04 | 1.12 | 0.925 | 1.22 | 1.04
41 | AAGUUUGUUAAUGGUCGCAAG [Fam3.1 aminoacylation ribozyme variant] | 1.11 | 0.867 | 0.775 | 0.685 | 0.694 | 0.557
42 | AAGUUUUCUAAUAGUCGCACG [Fam3.1 aminoacylation ribozyme variant] | 1.8 | 1.3 | 1.38 | 1.25 | 1.24 | 1.34
43 | AAGUUUUCUAAUGGUCGCAAG [Fam3.1 aminoacylation ribozyme variant] | 2.21 | 1.67 | 1.21 | 1.38 | 1.6 | 1.68
44 | AAGUUUUUUAAUAGUCGCAAG [Fam3.1 aminoacylation ribozyme variant] | 3.28 | 2.01 | 1.58 | 1.62 | 1.71 | 2.02
45 | AAUACCCAGGUCAUCGAGUGA [Fam2.1 aminoacylation ribozyme variant] | 17.6 | 2.87 | 4.41 | 2.56 | 4.58 | 5.81
46 | AAUACCCUGGUCACCGAGUGA [Fam2.1 aminoacylation ribozyme variant] | 39.1 | 4.13 | 6.98 | 3.33 | 6.58 | 6.81
47 | AAUACCCUGGUCAGCGAGUGA [Fam2.1 aminoacylation ribozyme variant] | 3.78 | 2.36 | 4.02 | 2.61 | 4.46 | 5.5
48 | AAUACCCUGGUCAUCAAGUGA [Fam2.1 aminoacylation ribozyme variant] | 2.42 | 1.15 | 1.48 | 1.16 | 1.56 | 1.75
49 | AAUACCCUGGUCAUCGAGAGA [Fam2.1 aminoacylation ribozyme variant] | 0.87 | 0.653 | 0.552 | 0.65 | 0.673 | 0.752
50 | AAUACCCUGGUCAUCGAGUAA [Fam2.1 aminoacylation ribozyme variant] | 3.36 | 1.41 | 1.51 | 1.54 | 1.93 | 1.32
51 | AAUACCCUGGUCAUCGAGUGA [Fam2.1 aminoacylation ribozyme variant] | 20.8 | 5.01 | 9.27 | 5.52 | 8.74 | 11.2
